# From PMC8748450, “Aminoacyl chain translocation catalysed by a type II thioesterase domain in an unusual non-ribosomal peptide synthetase” (Nature Communications, 2022)
# T1: apo-LgnD-C1-T1 didomain (truncated LgnD)
# T1 chain: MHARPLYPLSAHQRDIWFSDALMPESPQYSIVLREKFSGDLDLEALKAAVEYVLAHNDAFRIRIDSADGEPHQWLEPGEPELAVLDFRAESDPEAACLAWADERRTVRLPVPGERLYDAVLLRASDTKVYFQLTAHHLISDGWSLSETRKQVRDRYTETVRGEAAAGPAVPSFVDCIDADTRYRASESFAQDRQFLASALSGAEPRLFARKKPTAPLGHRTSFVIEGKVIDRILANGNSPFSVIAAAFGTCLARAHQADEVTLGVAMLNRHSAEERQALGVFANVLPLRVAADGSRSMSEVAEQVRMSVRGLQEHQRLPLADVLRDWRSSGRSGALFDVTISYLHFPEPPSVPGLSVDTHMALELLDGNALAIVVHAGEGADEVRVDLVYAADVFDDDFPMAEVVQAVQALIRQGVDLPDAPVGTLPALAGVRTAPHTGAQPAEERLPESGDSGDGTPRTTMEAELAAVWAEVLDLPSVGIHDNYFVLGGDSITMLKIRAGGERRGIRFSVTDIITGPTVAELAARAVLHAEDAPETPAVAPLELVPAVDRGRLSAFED
# T2: LgnD-T1 domain (truncated LgnD)
# T2 chain: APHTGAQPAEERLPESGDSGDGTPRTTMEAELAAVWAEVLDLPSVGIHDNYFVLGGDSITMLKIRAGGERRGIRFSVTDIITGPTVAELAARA
# B1: LgnA, type II thioesterase (TEII) orthologue (enzyme)
# chain: MPVTLLCIPYAGAGASLFRRWKRHPFQHMDVAAVQLPGREELFADGPCTSMSELVDLCAGHIRELPQDAPFALFGHSFGALVAYETAQRLAAEGLRLPERLIVSGAAAPWLPRPVTDADSLSDDQFVARVRDVVGYDHPALHDAELRGLLLPSLRADLSISDRYAPGSTDPLPVPLTVLRGSDDRLVSRQDVELWAKAASQPTELIELPGDHMYFSLDPKPLLAELDAVFARSAA
# B2: LgnA, type II thioesterase (TEII) orthologue (enzyme)
# chain: MPVTLLCIPYAGAGASLFRRWKRHPFQHMDVAAVQLPGREELFADGPCTSMSELVDLCAGHIRELPQDAPFALFGHSFGALVAYETAQRLAAEGLRLPERLIVSGAAAPWLPRPVTDADSLSDDQFVARVRDVVGYDHPALHDAELRGLLLPSLRADLSISDRYAPGSTDPLPVPLTVLRGSDDRLVSRQDVELWAKAASQPTELIELPGDHMYFSLDPKPLLAELDAVFARSAA
# modifications: apo form (no phosphopantetheine on Ser492)
# B3: LgnA, type II thioesterase (TEII) orthologue (enzyme)
# chain: MPVTLLCIPYAGAGASLFRRWKRHPFQHMDVAAVQLPGREELFADGPCTSMSELVDLCAGHIRELPQDAPFALFGHSFGALVAYETAQRLAAEGLRLPERLIVSGAAAPWLPRPVTDADSLSDDQFVARVRDVVGYDHPALHDAELRGLLLPSLRADLSISDRYAPGSTDPLPVPLTVLRGSDDRLVSRQDVELWAKAASQPTELIELPGDHMYFSLDPKPLLAELDAVFARSAA
# modifications: apo form (no phosphopantetheine on Ser492 of LgnD); limits from primers 28a-LgnD_T1-F/R
# Experiments:
# Details in all cases: both partners purified
# [1] = molecular target: T3, apo-LgnB-A1-T0 didomain (NRPS subunit LgnB) (RED-tris-NTA label (in the MST experiment only)); assay: MST; LgnB labelled with RED-tris-NTA, 25 nM, as target; LgnA as ligand, 10 to 0.000305 µM; HBS-ET (10 mM HEPES, 150 mM NaCl, 3 mM EDTA, 0.005% Tween-20, pH 8.0); 25 °C; Monolith NT.115
# T3 construct: LgnB, NRPS subunit with domains A1-T0, encoded by lgnB of the legonmycin (lgn) biosynthetic gene cluster, amplified from cosmid 7G1; about 65 kDa; apo form (no phosphopantetheine); Cloned into EcoRI/HindIII of pET-28a(+); MA37; source: E. coli BL21-CodonPlus (DE3)-RP, purified (Ni-NTA; gel filtration on Superdex 75 for ITC); not shown: His6, N-terminal, kept
# [2] = molecular target: T4, apo-LgnD (NRPS subunit, C1-T1-C2-A2-T2-TE); assay: ITC; LgnA (125 µM) titrated into LgnD or truncated LgnD (25 µM), also into LgnB (concentrations for LgnB not told); thirteen 3 µL injections, 25 °C; one set binding model; MicroCal PEAQ-ITC
# T4 construct: LgnD, NRPS subunit with domains C1-T1-C2-A2-T2-TE, encoded by lgnD of the legonmycin (lgn) biosynthetic gene cluster, amplified from cosmid 7G1; about 207 kDa; apo form (no phosphopantetheine); Cloned into NdeI/XhoI of pEHISTEVa; MA37; also called full-length LgnD; source: E. coli BL21-CodonPlus (DE3)-RP, purified (Ni-NTA; gel filtration on Superdex 75 for ITC)
# [3] = molecular target: T1, apo-LgnD-C1-T1 didomain (truncated LgnD); assay: as above
# [4] = molecular target: T2, LgnD-T1 domain (truncated LgnD); assay: as above
# T3 sequence (main, as listed by the source): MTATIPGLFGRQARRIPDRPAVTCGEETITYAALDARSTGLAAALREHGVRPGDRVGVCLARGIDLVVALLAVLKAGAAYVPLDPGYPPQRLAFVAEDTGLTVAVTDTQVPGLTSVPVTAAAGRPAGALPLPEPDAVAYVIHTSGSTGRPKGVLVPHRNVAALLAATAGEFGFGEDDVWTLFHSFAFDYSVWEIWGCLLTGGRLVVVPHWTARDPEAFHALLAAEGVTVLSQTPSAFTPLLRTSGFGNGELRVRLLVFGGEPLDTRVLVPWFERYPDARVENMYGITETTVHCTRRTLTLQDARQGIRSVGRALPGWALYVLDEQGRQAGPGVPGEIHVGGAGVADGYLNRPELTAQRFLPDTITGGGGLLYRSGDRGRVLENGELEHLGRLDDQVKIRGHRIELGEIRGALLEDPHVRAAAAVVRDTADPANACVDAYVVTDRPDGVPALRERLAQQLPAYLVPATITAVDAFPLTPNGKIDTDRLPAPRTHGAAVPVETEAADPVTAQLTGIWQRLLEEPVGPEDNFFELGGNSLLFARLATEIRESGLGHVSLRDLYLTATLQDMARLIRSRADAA
binder,measurement,setting,value
B1,Kd,[1],1.7 ± 0.813 µM
same,Kd,[2],2.55 ± 0.096 µM
B2,Kd,[3],1.01 ± 0.227 µM
B3,Kd,[4],7.21 ± 1.61 µM
